Numbering of substitutions follows the chain as printed.
B1: IgG1-CD134-RG7888 (antibody, INN chains, looked up, V domains shown)
VH: EVQLVQSGAEVKKPGASVKVSCKASGYTFTDSYMSWVRQAPGQGLEWIGDMYPDNGDSSYNQKFRERVTITRDTSTSTAYLELSSLRSEDTAVYYCVLAPRWYFSVWGQGTLVTVSS
VL: DIQMTQSPSSLSASVGDRVTITCRASQDISNYLNWYQQKPGKAPKLLIYYTSRLRSGVPSRFSGSGSGTDFTLTISSLQPEDFATYYCQQGHTLPPTFGQGTKVEIK
modifications: IgG1
B2: IgG1-CD134-ABBV368 (antibody, INN chains, looked up, V domains shown)
VH: EVQLVESGGGLVQPGGSLRLSCAASGFTFSRYGMSWVRQAPGKGLELVATINSNGGRTYYPDSVKGRFTISRDNAKNSLYLQMNSLRAEDTAVYYCAREGITTAYAMDYWGQGTTVTVSS
VL: DIVMTQSPDSLAVSLGERATINCKASQSVDYDGDSYMHWYQQKPGQPPKLLIYAASILESGVPDRFSGSGSGTDFTLTISSLQAEDVAVYYCQQSNEDPRTFGGGTKVEIK
modifications: IgG1
B3: IgG1-CD134-GBR830 (antibody, INN chains, looked up, V domains shown)
VH: QVTLKESGPALVKPTQTLTLTCSFSGFSLSTSGMGVGWIRQPPGKALEWIAHIWWDDDKYYNTALKTRLTISKDTSKNQVVLTMTNMDPVDTATYYCARIDWDGFAYWGQGTLVTVSS
VL: EIVLTQSPATLSLSPGERATLSCRASSSVSYMHWYQQKPGQAPRPWIYATSNRATGIPARFSGSGSGTDYTLTISSLEPEDFAVYYCQQWSSNPWTFGQGTKVEIK
modifications: IgG1
B4: IgG1-CD134-MEDI0562 (antibody, INN chains, looked up, V domains shown)
VH: QVQLQESGPGLVKPSQTLSLTCAVYGGSFSSGYWNWIRKHPGKGLEYIGYISYNGITYHNPSLKSRITINRDTSKNQYSLQLNSVTPEDTAVYYCARYKYDYDGGHAMDYWGQGTLVTVSS
VL: B1 VL with R53K, R55H, F71Y, H92S, T93A, P96W
modifications: IgG1

Experiments:
[1] = molecular target: recombinant human OX40 (Acro Biosystems, cat. no. OXO-H5224) (human) (UniProt P43489); test: BLI cross-block; competitor (immobilized 1st Ab): IgG1-CD134-INCAGN1949
recombinant human OX40 (Acro Biosystems, cat. no. OXO-H5224) (human), sequence (P43489 29-216 limits assumed): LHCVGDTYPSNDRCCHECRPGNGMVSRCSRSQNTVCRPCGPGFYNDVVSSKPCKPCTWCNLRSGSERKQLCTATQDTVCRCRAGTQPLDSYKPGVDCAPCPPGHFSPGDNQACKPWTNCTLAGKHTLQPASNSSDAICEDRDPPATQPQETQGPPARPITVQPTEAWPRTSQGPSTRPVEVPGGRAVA

[2] = molecular target: recombinant human OX40 (Acro Biosystems, cat. no. OXO-H5224) (human) (UniProt P43489); test: BLI cross-block; competitor (immobilized 1st Ab): IgG1-CD134-IBI101
[3] = molecular target: recombinant human OX40 (Acro Biosystems, cat. no. OXO-H5224) (human) (UniProt P43489); test: BLI cross-block; competitor (immobilized 1st Ab): IgG1-CD134-A4453
[4] = molecular target: recombinant human OX40 (Acro Biosystems, cat. no. OXO-H5224) (human) (UniProt P43489); test: BLI cross-block; competitor (immobilized 1st Ab): IgG1-CD134-RG7888
[5] = molecular target: human OX40, cell surface-expressed (human) (UniProt P43489); test: flow cytometry, activated CD4+ T cells, donor 2
human OX40, cell surface-expressed (human), sequence (P43489 29-277): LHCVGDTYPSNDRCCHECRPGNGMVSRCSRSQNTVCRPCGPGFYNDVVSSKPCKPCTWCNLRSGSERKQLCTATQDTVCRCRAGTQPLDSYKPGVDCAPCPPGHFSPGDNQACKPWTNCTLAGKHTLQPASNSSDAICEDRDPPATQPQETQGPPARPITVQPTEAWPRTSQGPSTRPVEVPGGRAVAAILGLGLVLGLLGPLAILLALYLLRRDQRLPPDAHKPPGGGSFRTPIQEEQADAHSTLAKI

[6] = molecular target: recombinant human OX40 (Acro Biosystems, cat. no. OXO-H5224) (human) (UniProt P43489); test: BLI cross-block; competitor (immobilized 1st Ab): IgG1-CD134-49B4-RRE
[7] = molecular target: human OX40, cell surface-expressed (human) (UniProt P43489); test: flow cytometry, HEK293F cells with human OX40
[8] = molecular target: human OX40, cell surface-expressed (human) (UniProt P43489); test: flow cytometry, activated CD4+ T cells, donor 3
[9] = molecular target: cynomolgus monkey OX40, cell surface-expressed (cynomolgus monkey); test: flow cytometry, HEK293F cells with cynomolgus monkey OX40
cynomolgus monkey OX40, cell surface-expressed (cynomolgus monkey), sequence (P43489 other isoform, or with tags, fused parts or gaps limits assumed): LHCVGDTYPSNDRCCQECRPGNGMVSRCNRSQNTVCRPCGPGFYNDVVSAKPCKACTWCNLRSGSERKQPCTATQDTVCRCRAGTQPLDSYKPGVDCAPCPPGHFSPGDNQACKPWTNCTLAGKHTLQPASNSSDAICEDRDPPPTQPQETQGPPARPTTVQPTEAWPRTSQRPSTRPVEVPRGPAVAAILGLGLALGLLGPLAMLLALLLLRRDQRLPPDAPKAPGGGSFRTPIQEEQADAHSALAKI

[10] = molecular target: recombinant human OX40 (Acro Biosystems, cat. no. OXO-H5224) (human) (UniProt P43489); test: BLI cross-block; competitor (immobilized 1st Ab): IgG1-CD134-003
[11] = molecular target: recombinant human OX40 (Acro Biosystems, cat. no. OXO-H5224) (human) (UniProt P43489); test: BLI cross-block; competitor (immobilized 1st Ab): IgG1-CD134-003-HC6LC2-RR
[12] = molecular target: human OX40, cell surface-expressed (human) (UniProt P43489); test: flow cytometry, activated CD4+ T cells, mean of 3 donors
[13] = molecular target: recombinant human OX40 (Acro Biosystems, cat. no. OXO-H5224) (human) (UniProt P43489); test: BLI cross-block; competitor (immobilized 1st Ab): IgG1-CD134-ABBV368
[14] = molecular target: human OX40, cell surface-expressed (human) (UniProt P43489); test: flow cytometry, ExpiCHO-S cells with human OX40
[15] = molecular target: recombinant human OX40 (Acro Biosystems, cat. no. OXO-H5224) (human) (UniProt P43489); test: BLI cross-block; competitor (immobilized 1st Ab): IgG1-CD134-012
[16] = molecular target: recombinant human OX40 (Acro Biosystems, cat. no. OXO-H5224) (human) (UniProt P43489); test: BLI cross-block; competitor (immobilized 1st Ab): IgG1-CD134-Hu106
[17] = molecular target: human OX40, cell surface-expressed (human) (UniProt P43489); test: flow cytometry, activated CD8+ T cells, donor 1
[18] = molecular target: human OX40, cell surface-expressed (human) (UniProt P43489); test: flow cytometry, activated CD8+ T cells, donor 2
[19] = molecular target: human OX40, cell surface-expressed (human) (UniProt P43489); test: flow cytometry, activated CD8+ T cells, donor 3
[20] = molecular target: human OX40, cell surface-expressed (human) (UniProt P43489); test: flow cytometry, activated CD4+ T cells, donor 1
[21] = molecular target: recombinant human OX40 (Acro Biosystems, cat. no. OXO-H5224) (human) (UniProt P43489); test: BLI cross-block; competitor (immobilized 1st Ab): IgG1-CD134-11D4
[22] = molecular target: recombinant human OX40 (Acro Biosystems, cat. no. OXO-H5224) (human) (UniProt P43489); test: BLI cross-block; competitor (immobilized 1st Ab): IgG1-CD134-h3C8
[23] = molecular target: recombinant human OX40 (Acro Biosystems, cat. no. OXO-H5224) (human) (UniProt P43489); test: BLI cross-block; competitor (immobilized 1st Ab): IgG1-CD134-GBR830
[24] = molecular target: human OX40 with mouse CRD2 (human with mouse CRD2) (UniProt P43489); test: flow cytometry, ExpiCHO-S cells with human OX40 carrying mouse CRD2
human OX40 with mouse CRD2 (human with mouse CRD2), sequence (P43489 other isoform, or with tags, fused parts or gaps limits assumed): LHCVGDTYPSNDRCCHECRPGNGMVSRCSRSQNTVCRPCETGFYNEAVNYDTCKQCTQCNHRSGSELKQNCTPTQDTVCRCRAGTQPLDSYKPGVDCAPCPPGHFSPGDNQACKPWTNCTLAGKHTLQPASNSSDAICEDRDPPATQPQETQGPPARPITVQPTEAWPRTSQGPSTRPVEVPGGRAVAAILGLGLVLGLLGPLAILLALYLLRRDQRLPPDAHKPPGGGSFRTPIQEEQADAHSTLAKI

[25] = molecular target: recombinant human OX40 (Acro Biosystems, cat. no. OXO-H5224) (human) (UniProt P43489); test: BLI cross-block; competitor (immobilized 1st Ab): IgG1-CD134-007
[26] = molecular target: recombinant human OX40 (Acro Biosystems, cat. no. OXO-H5224) (human) (UniProt P43489); test: BLI cross-block; competitor (immobilized 1st Ab): IgG1-CD134-MEDI0562
[27] = molecular target: recombinant cynomolgus monkey OX40 (Acro Biosystems, cat. no. OXO-C5220) (cynomolgus monkey); test: BLI, Ab on AHC sensor, OX40 analyte
recombinant cynomolgus monkey OX40 (Acro Biosystems, cat. no. OXO-C5220) (cynomolgus monkey), sequence (P43489 other isoform, or with tags, fused parts or gaps limits assumed): as the sequence (P43489 29-216 limits assumed) above, with H16Q, S29N, S50A, P55A, L70P, A145P, I159T, G173R, G183R, R185P counted along it

[28] = molecular target: recombinant human OX40 (Acro Biosystems, cat. no. OXO-H5224) (human) (UniProt P43489); test: BLI, Ab on AHC sensor, OX40 analyte
[29] = molecular target: recombinant human OX40 (Acro Biosystems, cat. no. OXO-H5224) (human) (UniProt P43489); test: BLI cross-block; competitor (immobilized 1st Ab): IgG1-CD134-SF2
[30] = molecular target: human OX40 with mouse CRD4 (human with mouse CRD4) (UniProt P43489); test: flow cytometry, ExpiCHO-S cells with human OX40 carrying mouse CRD4
human OX40 with mouse CRD4 (human with mouse CRD4), sequence (P43489 other isoform, or with tags, fused parts or gaps limits assumed): as the sequence (P43489 29-277) above, with D109N, A122S, H125Q, L127R, Q128H, N132D, S134L, I137V counted along it

[31] = molecular target: human OX40 with mouse CRD1 (human with mouse CRD1) (UniProt P43489); test: flow cytometry, ExpiCHO-S cells with human OX40 carrying mouse CRD1
human OX40 with mouse CRD1 (human with mouse CRD1), sequence (P43489 other isoform, or with tags, fused parts or gaps limits assumed): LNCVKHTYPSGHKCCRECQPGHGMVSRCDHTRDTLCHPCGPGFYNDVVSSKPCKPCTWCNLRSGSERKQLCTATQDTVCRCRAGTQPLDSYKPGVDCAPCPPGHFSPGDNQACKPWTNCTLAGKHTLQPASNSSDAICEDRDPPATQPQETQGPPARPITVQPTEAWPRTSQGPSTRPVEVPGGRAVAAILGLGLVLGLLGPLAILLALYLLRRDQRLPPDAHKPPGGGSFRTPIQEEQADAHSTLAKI

[32] = molecular target: human OX40, cell surface-expressed (human) (UniProt P43489); test: flow cytometry, activated CD8+ T cells, mean of 3 donors
[33] = molecular target: human OX40 with mouse CRD3 (human with mouse CRD3) (UniProt P43489); test: flow cytometry, ExpiCHO-S cells with human OX40 carrying mouse CRD3
human OX40 with mouse CRD3 (human with mouse CRD3), sequence (P43489 other isoform, or with tags, fused parts or gaps limits assumed): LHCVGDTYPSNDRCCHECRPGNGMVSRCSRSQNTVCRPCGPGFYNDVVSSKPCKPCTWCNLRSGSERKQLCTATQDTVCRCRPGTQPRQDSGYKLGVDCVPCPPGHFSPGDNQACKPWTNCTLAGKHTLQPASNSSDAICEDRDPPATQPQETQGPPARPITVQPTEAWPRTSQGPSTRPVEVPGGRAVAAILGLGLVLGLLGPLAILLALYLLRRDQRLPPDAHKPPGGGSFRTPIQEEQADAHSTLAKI

corrected association response [1]	corrected association response [2]	corrected association response [3]	corrected association response [4]	corrected association response [6]	EC50 (read off the curve) [7]	corrected association response [10]	corrected association response [11]	corrected association response [13]	EC50 (read off the curve) [14]	corrected association response [15]	corrected association response [16]	corrected association response [21]	corrected association response [22]	corrected association response [23]	corrected association response [25]	corrected association response [26]	Kd [28]	koff [28]	kon [28]	other results	Binder
0.02 nm	0.23 nm	0.47 nm	0.02 nm	0.02 nm	0.05 µg/mL	0.66 nm	1.38 nm	0.01 nm	0.007 µg/mL	0.54 nm	0.1 nm	0.11 nm	0.41 nm	0.26 nm	0.47 nm	0.02 nm	0.23 nM	8.4e-05 s⁻¹	360000 M⁻¹ s⁻¹	EC50 [5]: 0.0292 µg/mL; EC50 [8]: 0.0316 µg/mL; EC50 (read off the curve) [9]: 0.05 µg/mL; EC50 [12]: 0.0354 µg/mL; EC50 [17]: 0.0627 µg/mL; EC50 [18]: 0.0332 µg/mL; EC50 [19]: 0.0393 µg/mL; EC50 [20]: 0.0453 µg/mL; EC50 (read off the curve) [24]: 0.01 µg/mL; Kd [27]: 0.61 nM; koff [27]: 0.00014 s⁻¹; kon [27]: 240000 M⁻¹ s⁻¹; corrected association response [29]: 0.01 nm; EC50 (read off the curve) [30]: 0.01 µg/mL; EC50 (read off the curve) [31]: 0.02 µg/mL; EC50 [32]: 0.0451 µg/mL	B1
0.01 nm	0.01 nm	0.29 nm	0.02 nm	0 nm	0.05 µg/mL	1.27 nm	1.68 nm	-0.04 nm	0.005 µg/mL	0.87 nm	0 nm	0.13 nm	-0.03 nm	0.01 nm	0 nm	-0.01 nm	32 nM	0.017 s⁻¹	510000 M⁻¹ s⁻¹	EC50 (read off the curve) [9]: 0.05 µg/mL; Kd [27]: 82 nM; koff [27]: 0.019 s⁻¹; kon [27]: 230000 M⁻¹ s⁻¹; corrected association response [29]: 0.04 nm; EC50 (read off the curve) [30]: 0.005 µg/mL; EC50 (read off the curve) [31]: 0.005 µg/mL	B2
0.01 nm	0.02 nm	0.28 nm	0.61 nm	0 nm	0.06 µg/mL	0.97 nm	1.08 nm	-0.01 nm	0.05 µg/mL	0.84 nm	0.02 nm	0.13 nm	-0.02 nm	0.01 nm	0.07 nm	0.33 nm	67 nM	0.0077 s⁻¹	120000 M⁻¹ s⁻¹	EC50 (read off the curve) [33]: 0.06 µg/mL; corrected association response [29]: 0.19 nm; EC50 (read off the curve) [30]: 0.06 µg/mL; EC50 (read off the curve) [31]: 0.06 µg/mL	B3
0 nm	0.28 nm	0.41 nm	0 nm	0.15 nm	0.06 µg/mL	1.39 nm	1.73 nm	-0.02 nm	0.07 µg/mL	0.82 nm	0.69 nm	0.14 nm	0.54 nm	0.32 nm	1.14 nm	0 nm	15 nM	0.0022 s⁻¹	150000 M⁻¹ s⁻¹	EC50 (read off the curve) [9]: 0.1 µg/mL; EC50 (read off the curve) [24]: 0.06 µg/mL; Kd [27]: 17 nM; koff [27]: 0.0018 s⁻¹; kon [27]: 110000 M⁻¹ s⁻¹; corrected association response [29]: 0.01 nm; EC50 (read off the curve) [30]: 0.06 µg/mL; EC50 (read off the curve) [31]: 0.07 µg/mL	B4
